Measured values from article PMC4422687.

Biological target: soluble HA-tagged canine SLAM (UniProt Q95MM9)
Details: parent: est. 100; read off a plot

Substance | percent of parent
CDV H-wt, full length attachment protein (hemagglutinin) H of canine distemper virus strain A75/17, FLAG-tagged D132A | 98 % to control
CDV H-wt, full length attachment protein (hemagglutinin) H of canine distemper virus strain A75/17, FLAG-tagged D135A | 130 % to control
CDV H-wt, full length attachment protein (hemagglutinin) H of canine distemper virus strain A75/17, FLAG-tagged E130A | 54 % to control
CDV H-wt, full length attachment protein (hemagglutinin) H of canine distemper virus strain A75/17, FLAG-tagged F131A | 93 % to control
CDV H-wt, full length attachment protein (hemagglutinin) H of canine distemper virus strain A75/17, FLAG-tagged F133A | 160 % to control
CDV H-wt, full length attachment protein (hemagglutinin) H of canine distemper virus strain A75/17, FLAG-tagged H137A | 86 % to control
CDV H-wt, full length attachment protein (hemagglutinin) H of canine distemper virus strain A75/17, FLAG-tagged L136A | 70 % to control
CDV H-wt, full length attachment protein (hemagglutinin) H of canine distemper virus strain A75/17, FLAG-tagged N126A | 94 % to control
CDV H-wt, full length attachment protein (hemagglutinin) H of canine distemper virus strain A75/17, FLAG-tagged N128A | 84 % to control
CDV H-wt, full length attachment protein (hemagglutinin) H of canine distemper virus strain A75/17, FLAG-tagged P127A | 61 % to control
CDV H-wt, full length attachment protein (hemagglutinin) H of canine distemper virus strain A75/17, FLAG-tagged R129A | 110 % to control
CDV H-wt, full length attachment protein (hemagglutinin) H of canine distemper virus strain A75/17, FLAG-tagged R134A | 110 % to control
CDV H-wt, full length attachment protein (hemagglutinin) H of canine distemper virus strain A75/17, FLAG-tagged W138A | 98 % to control
